According to patent US20170119790A1, “Agents, Uses and Methods” (CYTOGUIDE A/S, priority 2009, published 2017):

Columns and labels:
[1] = target: T1, human CD163 R60D (Homo sapiens, UniProt Q86VB7, R112D); assay: Western blotting of human CD163 and knock out mutants; format: binding
T1 construct: a pcDNA5-FRT-humanCD163 plasmid harboring the full length human CD163 cDNA; expressed in transfected cells; host or cells: HEK 293, transient
From the text: (§1) For the mutant generation the Site-directed Ligation Independent Mutagenesis (SLIM) method was used (1). Primers are listed in the primer table. The template for the generation of the two first mutants was a pcDNA5-FRT-humanCD163 plasmid harboring the full length human CD163 cDNA. The primers LKI FT, RT, F, and R were used to generate the mutant plasmid pcDNA5-FRT-humanCD163 (VKVQEE-->LKIHEK). The primers R60D FT, RT, F, and R were used to generate the mutant plasmid pcDNA5-FRT-humanCD163 (R60D). Generation of a double mutant was done by performing a SLIM reaction on pcDNA5-FRT-humanCD163 (VKVQEE-->LKIHEK) with the primers R60D FT, RT, F, and R.
(§2) Each cell pellet was added 1 ml lysis buffer (10 mM Tris pH 8, 140 mM NaCl, 15 mM MgSO4, 1% Triton X-100) and incubated for 15 min at 4 °C with rotation. After centrifugation for 30 min at 6000 rpm the supernatants were sterile filtered.
(§3) 90 μl of each of the supernatants were added 30 μl of 4×LDS sample buffer. 3×20 μl samples of each supernatant and 8 μl SeeBlue plus2 prestained marker were loaded on NuPage 4-12% Bis-Tris-Gels (Invitrogen, Taastrup, Denmark) and the SDS-PAGEs were run with MOPS running buffer according to instructions of the manufacturer (200 V constant for 50 min). Blotting to PVDF membranes (Invitrogen, Taastrup, Denmark) was done on an iBLOT device according to instructions of the manufacturer. […]

[2] = target: T2, human CD163 LKIHEK containing mutants (VKVQEE-->LKIHEK and double mutant) (Homo sapiens, UniProt Q86VB7, E71K/Q69H/V66L/V68I); assay: as above; format: binding
T2 construct: a pcDNA5-FRT-humanCD163 plasmid harboring the full length human CD163 cDNA; expressed in transfected cells; host or cells: HEK 293, transient
From the text: as §1, §2, §3

[3] = target: T3, human CD163 wt (Homo sapiens, UniProt Q86VB7); assay: as above; format: binding
T3 construct: a pcDNA5-FRT-humanCD163 plasmid harboring the full length human CD163 cDNA; expressed in transfected cells; host or cells: HEK 293, transient
Description: as §2
90 μl of each of the supernatants were added 30 μl of 4×LDS sample buffer. 3×20 μl samples of each supernatant and 8 μl SeeBlue plus2 prestained marker were loaded on NuPage 4-12% Bis-Tris-Gels (Invitrogen, Taastrup, Denmark) and the SDS-PAGEs were run with MOPS running buffer according to instructions of the manufacturer (200 V constant for 50 min). Blotting to PVDF membranes (Invitrogen, Taastrup, Denmark) was done on an iBLOT device according to instructions of the manufacturer. After blotting the membranes were washed briefly in 1×PBS 0.1% Tween and blocked for 30 min in 1×PBS 2% Tween at room temperature with shaking. After blocking the membranes were washed 3×5 min in 1×PBS 0.1% Tween and incubated 1 hour with: (1) 10 ml 1 μg/ml polyclonal rabbit anti-human CD163; (2) 10 ml 1 μg/ml Mac2-158; (3) 10 ml 1:500 KN2/NRY-HRP all diluted in 1×PBS 0.1% Tween. The membranes were washed with 3×5 min 1×PBS 0.1% Tween again and incubated with: (1) 10 ml Goat anti-rabbit-HRP 1:1000 (AbD Serotec, Oxford, UK); or (2) 10 ml Goat anti-mouse-HRP 1:1000 (Dako, Glostrup, Denmark) for 1 hour. […]

[4] = target: T4, CD163 on peripheral blood dendritic cells (Homo sapiens, UniProt Q86VB7); assay: Flow cytometry of CD163 expression on peripheral blood dendritic cells; format: cell-based
T4 construct: Freshly drawn peripheral whole blood samples or PBMC; endogenous in cells; host or cells: human peripheral blood monocytes, blood dendritic cells, monocyte-derived macrophages (healthy donors, buffy coats)
From the text: Freshly drawn peripheral whole blood samples (approx. 3×10^6 cells) were stained with isotype-matched control antibody (Mouse IgG1 PE, k isotype control, MOPC-21, BD Pharmingen™, San Diego, Calif., USA) or a relevant antibody (anti-CD3 FITC, UCHT1, BD Biosciences, San Diego, Calif., USA; anti-CD11c FITC, KB90, DAKO A/S, Glostrup, Denmark; anti-CD14 FITC, RM052, 10Tests®, Beckman and Coulter, Marseille, France; anti-CD16 FITC, 3G8, BD Biosciences, San Diego, Calif., USA; anti-CD19 FITC, SJ25C1, BD Biosciences, San Diego, Calif., USA; anti-CD20 FITC, CAT 13.6E12, Diatec.com A/S, Oslo, Norway; anti-CD56 FITC, NCAM16.2, BD Biosciences, San Diego, Calif., USA; anti-CD91 FITC, A2MR-a2, BD Biosciences, San Diego, Calif.; anti-HLA-DR FITC, EDU-1, Diatec.com A/S, Oslo, Norway; anti-CD163 PE, MAC2-158, IQ Products, Groningen, The Netherlands; anti-CD163 PE, GHI/61, BD Biosciences, CA, USA; anti-ILT3/CD85k PE-Cy5, ZM3.8, IOTests®, Beckman and Coulter, Marseille, France; anti-HLA-DR PerCP, L234, BD Biosciences, San Diego, Calif.; anti-CD4 APC, EDU-2, Diatec.com A/S, Oslo, Norway; anti-CD14 APC, 18D11, Diatec.com A/S, Oslo, Norway) for 15 minutes at room temperature in the dark. […] For CD163 density quantitation, flow cytometric estimation of antibodies bound/cell (ABCs) was performed using Quantibrite PE beads (Becton Dickinson, San Jose, Calif., USA) as recommended by the manufacturer. […]

T4 sequence (Q86VB7 42-1156): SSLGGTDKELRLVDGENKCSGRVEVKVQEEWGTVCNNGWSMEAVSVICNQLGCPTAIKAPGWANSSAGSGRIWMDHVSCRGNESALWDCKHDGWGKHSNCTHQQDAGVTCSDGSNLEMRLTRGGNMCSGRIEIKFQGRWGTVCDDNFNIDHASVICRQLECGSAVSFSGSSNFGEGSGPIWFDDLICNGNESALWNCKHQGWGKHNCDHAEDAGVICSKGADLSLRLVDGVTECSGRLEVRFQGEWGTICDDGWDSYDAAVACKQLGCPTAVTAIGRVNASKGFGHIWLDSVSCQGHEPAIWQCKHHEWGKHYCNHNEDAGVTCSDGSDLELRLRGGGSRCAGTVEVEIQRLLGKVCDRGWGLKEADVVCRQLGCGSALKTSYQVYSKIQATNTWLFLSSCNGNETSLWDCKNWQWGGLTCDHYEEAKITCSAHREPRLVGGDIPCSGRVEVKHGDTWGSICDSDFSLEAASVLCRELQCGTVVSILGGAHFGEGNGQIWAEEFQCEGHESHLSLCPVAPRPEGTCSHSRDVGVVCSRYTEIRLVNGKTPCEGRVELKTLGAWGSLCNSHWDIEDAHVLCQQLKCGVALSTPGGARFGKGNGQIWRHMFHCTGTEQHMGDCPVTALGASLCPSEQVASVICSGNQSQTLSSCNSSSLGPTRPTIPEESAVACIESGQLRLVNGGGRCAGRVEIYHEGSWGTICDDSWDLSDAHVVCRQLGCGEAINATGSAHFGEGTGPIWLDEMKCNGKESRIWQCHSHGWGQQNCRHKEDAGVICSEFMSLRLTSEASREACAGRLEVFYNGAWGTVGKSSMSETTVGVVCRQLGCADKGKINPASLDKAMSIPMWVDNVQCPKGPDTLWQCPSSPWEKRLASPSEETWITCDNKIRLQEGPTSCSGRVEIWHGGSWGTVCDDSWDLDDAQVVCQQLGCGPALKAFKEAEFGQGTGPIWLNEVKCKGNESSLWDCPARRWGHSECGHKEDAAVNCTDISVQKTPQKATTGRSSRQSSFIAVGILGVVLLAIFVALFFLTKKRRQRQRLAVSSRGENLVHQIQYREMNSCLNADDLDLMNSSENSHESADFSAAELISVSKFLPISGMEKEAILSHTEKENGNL
T1 sequence (Q86VB7 42-1156 R112D): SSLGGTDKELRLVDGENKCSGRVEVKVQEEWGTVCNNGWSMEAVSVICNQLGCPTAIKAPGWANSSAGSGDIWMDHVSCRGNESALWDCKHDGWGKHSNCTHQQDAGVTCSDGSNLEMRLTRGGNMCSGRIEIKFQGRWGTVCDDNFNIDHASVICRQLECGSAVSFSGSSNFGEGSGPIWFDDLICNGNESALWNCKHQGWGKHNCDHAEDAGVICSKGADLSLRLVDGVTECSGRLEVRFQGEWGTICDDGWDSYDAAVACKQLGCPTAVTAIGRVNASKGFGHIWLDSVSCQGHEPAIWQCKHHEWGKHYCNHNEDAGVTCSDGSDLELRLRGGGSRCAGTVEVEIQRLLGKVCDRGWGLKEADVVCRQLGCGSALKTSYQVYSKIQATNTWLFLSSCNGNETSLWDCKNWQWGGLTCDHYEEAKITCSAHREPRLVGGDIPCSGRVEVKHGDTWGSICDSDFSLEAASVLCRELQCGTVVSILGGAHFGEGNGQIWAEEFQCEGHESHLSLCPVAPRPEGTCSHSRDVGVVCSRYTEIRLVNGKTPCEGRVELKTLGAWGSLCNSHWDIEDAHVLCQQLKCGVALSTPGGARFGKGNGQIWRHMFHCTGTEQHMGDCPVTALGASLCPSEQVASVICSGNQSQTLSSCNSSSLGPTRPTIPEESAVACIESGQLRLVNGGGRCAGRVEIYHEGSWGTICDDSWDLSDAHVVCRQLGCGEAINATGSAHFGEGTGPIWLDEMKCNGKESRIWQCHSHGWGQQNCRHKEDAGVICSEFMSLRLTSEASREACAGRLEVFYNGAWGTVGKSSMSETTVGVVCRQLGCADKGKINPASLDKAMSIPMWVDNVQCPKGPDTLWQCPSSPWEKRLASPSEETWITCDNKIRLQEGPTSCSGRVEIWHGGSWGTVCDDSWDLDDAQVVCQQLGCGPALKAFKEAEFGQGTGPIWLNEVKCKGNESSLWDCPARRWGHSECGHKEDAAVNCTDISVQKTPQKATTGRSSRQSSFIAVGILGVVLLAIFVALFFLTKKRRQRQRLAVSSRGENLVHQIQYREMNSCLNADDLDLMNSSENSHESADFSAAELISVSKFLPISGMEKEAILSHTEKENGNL
T3 sequence (Q86VB7 42-1156): as the sequence (Q86VB7 42-1156) above
T2 sequence (Q86VB7 42-1156 V66L/V68I/Q69H/E71K): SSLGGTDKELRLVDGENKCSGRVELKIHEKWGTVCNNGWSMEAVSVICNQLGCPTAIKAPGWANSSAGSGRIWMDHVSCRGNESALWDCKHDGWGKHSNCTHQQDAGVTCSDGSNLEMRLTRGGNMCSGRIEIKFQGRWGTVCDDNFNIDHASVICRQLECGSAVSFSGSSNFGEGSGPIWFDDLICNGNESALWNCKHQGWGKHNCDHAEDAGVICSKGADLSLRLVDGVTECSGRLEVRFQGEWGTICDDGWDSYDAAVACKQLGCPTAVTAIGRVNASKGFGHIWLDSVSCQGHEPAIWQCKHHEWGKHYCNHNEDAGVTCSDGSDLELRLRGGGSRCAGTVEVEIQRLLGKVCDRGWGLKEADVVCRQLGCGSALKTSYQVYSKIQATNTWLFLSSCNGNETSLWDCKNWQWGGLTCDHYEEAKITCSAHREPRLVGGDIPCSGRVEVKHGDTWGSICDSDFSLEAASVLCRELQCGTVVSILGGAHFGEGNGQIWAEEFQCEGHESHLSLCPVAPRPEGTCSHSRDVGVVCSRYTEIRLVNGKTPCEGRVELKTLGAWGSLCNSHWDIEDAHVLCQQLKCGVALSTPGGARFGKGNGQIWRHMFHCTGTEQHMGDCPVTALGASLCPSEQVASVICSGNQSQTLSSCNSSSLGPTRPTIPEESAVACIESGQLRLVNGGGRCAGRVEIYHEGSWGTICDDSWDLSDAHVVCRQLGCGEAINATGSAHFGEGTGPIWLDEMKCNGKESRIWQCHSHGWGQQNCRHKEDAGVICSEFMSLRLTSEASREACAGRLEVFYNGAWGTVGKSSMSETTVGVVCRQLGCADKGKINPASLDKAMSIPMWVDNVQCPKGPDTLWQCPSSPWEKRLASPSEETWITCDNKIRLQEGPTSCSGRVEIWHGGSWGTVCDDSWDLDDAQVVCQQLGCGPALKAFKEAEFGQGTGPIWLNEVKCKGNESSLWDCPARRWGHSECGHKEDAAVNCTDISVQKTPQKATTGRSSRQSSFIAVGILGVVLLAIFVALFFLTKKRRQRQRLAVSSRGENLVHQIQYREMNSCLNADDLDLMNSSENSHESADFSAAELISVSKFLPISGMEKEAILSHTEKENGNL

B1: MAC2-158: anti-human CD163 murine mAb, binds SRCR domain 1, IQ Products; VH SEQ ID NO: 1, VL SEQ ID NO: 2 (antibody, V domains shown)
VH: DVQLQESGPGLVKPSQSLSLTCTVTGYSITSDYAWNWIRQFPGNKLEWMGYITYSGITNYNPSLKSQISITRDTSKNQFFLQLNSVTTEDTATYYCVSGTYYFDYWGQGTTLTVSS
VL: SVVMTQTPKSLLISIGDRVTITCKASQSVSSDVAWFQQKPGQSPKPLIYYASNRYTGVPDRFTGSGYGTDFTFTISSVQAEDLAVYFCGQDYTSPRTFGGGTKLEIKRA
modifications: Mac2-158 VH; Mac2-158 VL
- binding in western blot [1]: very weak
- binding in western blot [2]: No binding was detected
- binding in western blot [3]: bound
- fraction of peripheral blood dendritic cells recognized (CD163 expressing) ([4]; CD14-ILT3+HLA-DR+ cells, whole blood): 32.3%
- MFI, reflecting the amount of CD163 receptors per cell ([4]; peripheral blood dendritic cells): 107.5
